We go through one substance from patent publication US20180296701A1.

The experiment concerns the target CAR (receptor of the wild-type Ad) (human) (UniProt P78310). Description: cell-based or functional assay.
Chain of UniProt P78310 (P78310 20-365): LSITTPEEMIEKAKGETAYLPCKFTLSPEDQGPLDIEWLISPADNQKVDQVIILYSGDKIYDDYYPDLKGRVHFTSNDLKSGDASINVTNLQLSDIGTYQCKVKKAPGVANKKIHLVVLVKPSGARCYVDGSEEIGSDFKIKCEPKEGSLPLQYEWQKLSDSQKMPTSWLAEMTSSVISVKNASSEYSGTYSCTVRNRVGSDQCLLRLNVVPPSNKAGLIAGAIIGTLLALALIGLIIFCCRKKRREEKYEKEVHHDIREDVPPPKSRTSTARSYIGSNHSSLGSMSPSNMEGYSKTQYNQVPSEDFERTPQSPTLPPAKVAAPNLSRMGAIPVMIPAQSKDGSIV

Consider Ad knob protein, for which the decrease of intracellular introduction efficiency (GFP expression, flow cytometry) of wild-type Ad (naked dE1/GFP) in MIA PaCa-2 cells pre-treated with knob protein at 0.2 ug/mL is 76% and the decrease of intracellular introduction efficiency (GFP expression, flow cytometry) of wild-type Ad (naked dE1/GFP) in MIA PaCa-2 cells pre-treated with knob protein at 1 ug/mL is 92%.
